Here are results for twelve variants from IntAct's records for PubMed 31515488.

First the molecules themselves.
B1: Macrophage scavenger receptor types I and II (Homo sapiens), P21757 (parent)
chain: MEQWDHFHNQQEDTDSCSESVKFDARSMTALLPPNPKNSPSLQEKLKSFKAALIALYLLVFAVLIPLIGIVAAQLLKWETKNCSVSSTNANDITQSLTGKGNDSEEEMRFQEVFMEHMSNMEKRIQHILDMEANLMDTEHFQNFSMTTDQRFNDILLQLSTLFSSVQGHGNAIDEISKSLISLNTTLLDLQLNIENLNGKIQENTFKQQEEISKLEERVYNVSAEIMAMKEEQVHLEQEIKGEVKVLNNITNDLRLKDWEHSQTLRNITLIQGPPGPPGEKGDRGPTGESGPRGFPGPIGPPGLKGDRGAIGFPGSRGLPGYAGRPGNSGPKGQKGEKGSGNTLTPFTKVRLVGGSGPHEGRVEILHSGQWGTICDDRWEVRVGQVVCRSLGYPGVQAVHKAAHFGQGTGPIWLNEVFCFGRESSIEECKIRQWGTRACSHSEDAGVTCTL
B2: Retinoic acid receptor beta (Homo sapiens), P10826-2 (parent)
chain: MFDCMDVLSVSPGQILDFYTASPSSCMLQEKALKACFSGLTQTEWQHRHTAQSIETQSTSSEELVPSPPSPLPPPRVYKPCFVCQDKSSGYHYGVSACEGCKGFFRRSIQKNMIYTCHRDKNCVINKVTRNRCQYCRLQKCFEVGMSKESVRNDRNKKKKETSKQECTESYEMTAELDDLTEKIRKAHQETFPSLCQLGKYTTNSSADHRVRLDLGLWDKFSELATKCIIKIVEFAKRLPGFTGLTIADQITLLKAACLDILILRICTRYTPEQDTMTFSDGLTLNRTQMHNAGFGPLTDLVFTFANQLLPLEMDDTETGLLSAICLICGDRQDLEEPTKVDKLQEPLLEALKIYIRKRRPSKPHMFPKILMKITDLRSISAKGAERVITLKMEIPGSMPPLIQEMLENSEGHEPLTPSSSGNTAEHSPSISPSSVENSGVSQSPLVQ
partner: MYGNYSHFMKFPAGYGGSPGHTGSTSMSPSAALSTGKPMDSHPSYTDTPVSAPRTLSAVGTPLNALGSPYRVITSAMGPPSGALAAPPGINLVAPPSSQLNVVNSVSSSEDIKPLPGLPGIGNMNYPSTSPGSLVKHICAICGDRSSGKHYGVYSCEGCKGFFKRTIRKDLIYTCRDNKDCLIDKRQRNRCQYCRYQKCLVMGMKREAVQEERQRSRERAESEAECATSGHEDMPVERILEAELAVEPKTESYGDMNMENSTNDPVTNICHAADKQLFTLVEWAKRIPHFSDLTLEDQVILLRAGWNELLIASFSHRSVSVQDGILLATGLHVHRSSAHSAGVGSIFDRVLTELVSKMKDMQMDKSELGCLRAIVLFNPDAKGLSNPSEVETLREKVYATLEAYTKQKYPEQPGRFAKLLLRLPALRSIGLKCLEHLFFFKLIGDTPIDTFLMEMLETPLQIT
B3: Programmed cell death 6-interacting protein (Homo sapiens), Q8WUM4 (parent)
chain: MATFISVQLKKTSEVDLAKPLVKFIQQTYPSGGEEQAQYCRAAEELSKLRRAAVGRPLDKHEGALETLLRYYDQICSIEPKFPFSENQICLTFTWKDAFDKGSLFGGSVKLALASLGYEKSCVLFNCAALASQIAAEQNLDNDEGLKIAAKHYQFASGAFLHIKETVLSALSREPTVDISPDTVGTLSLIMLAQAQEVFFLKATRDKMKDAIIAKLANQAADYFGDAFKQCQYKDTLPKEVFPVLAAKHCIMQANAEYHQSILAKQQKKFGEEIARLQHAAELIKTVASRYDEYVNVKDFSDKINRALAAAKKDNDFIYHDRVPDLKDLDPIGKATLVKSTPVNVPISQKFTDLFEKMVPVSVQQSLAAYNQRKADLVNRSIAQMREATTLANGVLASLNLPAAIEDVSGDTVPQSILTKSRSVIEQGGIQTVDQLIKELPELLQRNREILDESLRLLDEEEATDNDLRAKFKERWQRTPSNELYKPLRAEGTNFRTVLDKAVQADGQVKECYQSHRDTIVLLCKPEPELNAAIPSANPAKTMQGSEVVNVLKSLLSNLDEVKKEREGLENDLKSVNFDMTSKFLTALAQDGVINEEALSVTELDRVYGGLTTKVQESLKKQEGLLKNIQVSHQEFSKMKQSNNEANLREEVLKNLATAYDNFVELVANLKEGTKFYNELTEILVRFQNKCSDIVFARKTERDELLKDLQQSIAREPSAPSIPTPAYQSSPAGGHAPTPPTPAPRTMPPTKPQPPARPPPPVLPANRAPSATAPSPVGAGTAAPAPSQTPGSAPPPQAQGPPYPTYPGYPGYCQMPMPMGYNPYAYGQYNMPYPPVYHQSPGQAPYPGPQQPSYPFPQPPQQSYYPQQ
B4: DNA topoisomerase 3-beta-1 (Homo sapiens), O95985 (parent)
chain: MKTVLMVAEKPSLAQSIAKILSRGSLSSHKGLNGACSVHEYTGTFAGQPVRFKMTSVCGHVMTLDFLGKYNKWDKVDPAELFSQAPTEKKEANPKLNMVKFLQVEGRGCDYIVLWLDCDKEGENICFEVLDAVLPVMNKAHGGEKTVFRARFSSITDTDICNAMACLGEPDHNEALSVDARQELDLRIGCAFTRFQTKYFQGKYGDLDSSLISFGPCQTPTLGFCVERHDKIQSFKPETYWVLQAKVNTDKDRSLLLDWDRVRVFDREIAQMFLNMTKLEKEAQVEATSRKEKAKQRPLALNTVEMLRVASSSLGMGPQHAMQTAERLYTQGYISYPRTETTHYPENFDLKGSLRQQANHPYWADTVKRLLAEGINRPRKGHDAGDHPPITPMKSATEAELGGDAWRLYEYITRHFIATVSHDCKYLQSTISFRIGPELFTCSGKTVLSPGFTEVMPWQSVPLEESLPTCQRGDAFPVGEVKMLEKQTNPPDYLTEAELITLMEKHGIGTDASIPVHINNICQRNYVTVESGRRLKPTNLGIVLVHGYYKIDAELVLPTIRSAVEKQLNLIAQGKADYRQVLGHTLDVFKRKFHYFVDSIAGMDELMEVSFSPLAATGKPLSRCGKCHRFMKYIQAKPSRLHCSHCDETYTLPQNGTIKLYKELRCPLDDFELVLWSSGSRGKSYPLCPYCYNHPPFRDMKKGMGCNECTHPSCQHSLSMLGIGQCVECESGVLVLDPTSGPKWKVACNKCNVVAHCFENAHRVRVSADTCSVCEAALLDVDFNKAKSPLPGDETQHMGCVFCDPVFQELVELKHAASCHPMHRGGPGRRQGRGRGRARRPPGKPNPRRPKDKMSALAAYFV
partner: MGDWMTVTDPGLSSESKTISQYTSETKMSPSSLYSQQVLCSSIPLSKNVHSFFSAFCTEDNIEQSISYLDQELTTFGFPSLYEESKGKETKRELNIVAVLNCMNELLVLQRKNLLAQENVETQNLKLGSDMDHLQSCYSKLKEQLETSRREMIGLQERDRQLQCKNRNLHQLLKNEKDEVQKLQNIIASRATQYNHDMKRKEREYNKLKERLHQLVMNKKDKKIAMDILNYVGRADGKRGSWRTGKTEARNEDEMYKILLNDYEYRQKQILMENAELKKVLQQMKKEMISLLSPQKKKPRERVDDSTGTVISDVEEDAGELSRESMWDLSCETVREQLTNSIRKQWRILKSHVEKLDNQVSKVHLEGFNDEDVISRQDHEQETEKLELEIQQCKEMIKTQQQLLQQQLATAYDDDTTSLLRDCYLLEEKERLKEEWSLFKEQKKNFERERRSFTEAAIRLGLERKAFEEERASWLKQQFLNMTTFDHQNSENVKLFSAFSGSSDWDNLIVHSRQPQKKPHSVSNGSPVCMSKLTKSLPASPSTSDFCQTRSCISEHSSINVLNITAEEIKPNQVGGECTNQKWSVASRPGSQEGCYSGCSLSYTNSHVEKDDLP
B5: Dynein axonemal light chain 4 (Homo sapiens), O96015 (parent)
chain: MGETEGKKDEADYKRLQTFPLVRHSDMPEEMRVETMELCVTACEKFSNNNESAAKMIKETMDKKFGSSWHVVIGEGFGFEITHEVKNLLYLYFGGTLAVCVWKCS
B6: BAG family molecular chaperone regulator 5 (Homo sapiens), Q9UL15 (parent)
chain: MDMGNQHPSISRLQEIQKEVKSVEQQVIGFSGLSDDKNYKKLERILTKQLFEIDSVDTEGKGDIQQARKRAAQETERLLKELEQNANHPHRIEIQNIFEEAQSLVREKIVPFYNGGNCVTDEFEEGIQDIILRLTHVKTGGKISLRKARYHTLTKICAVQEIIEDCMKKQPSLPLSEDAHPSVAKINFVMCEVNKARGVLIALLMGVNNNETCRHLSCVLSGLIADLDALDVCGRTEIRNYRREVVEDINKLLKYLDLEEEADTTKAFDLRQNHSILKIEKVLKRMREIKNELLQAQNPSELYLSSKTELQGLIGQLDEVSLEKNPCIREARRRAVIEVQTLITYIDLKEALEKRKLFACEEHPSHKAVWNVLGNLSEIQGEVLSFDGNRTDKNYIRLEELLTKQLLALDAVDPQGEEKCKAARKQAVRLAQNILSYLDLKSDEWEY
B7: Protein FAM168A (Homo sapiens), Q92567 (parent)
chain: MNPVYSPVQPGAPYGNPKNMAYTGYPTAYPAAAPAYNPSLYPTNSPSYAPEFQFLHSAYATLLMKQAWPQNSSSCGTEGTFHLPVDTGTENRTYQASSAAFRYTAGTPYKVPPTQSNTAPPPYSPSPNPYQTAMYPIRSAYPQQNLYAQGAYYTQPVYAAQPHVIHHTTVVQPNSIPSAIYPAPVAAPRTNGVAMGMVAGTTMAMSAGTLLTTPQHTAIGAHPVSMPTYRAQGTPAYSYVPPHW
partner: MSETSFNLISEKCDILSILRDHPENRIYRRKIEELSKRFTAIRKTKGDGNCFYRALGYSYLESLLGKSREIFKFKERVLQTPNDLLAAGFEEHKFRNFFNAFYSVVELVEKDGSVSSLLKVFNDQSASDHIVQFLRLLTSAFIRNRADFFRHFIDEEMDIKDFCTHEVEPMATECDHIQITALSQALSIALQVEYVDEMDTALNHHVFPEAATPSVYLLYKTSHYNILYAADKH
B8: Protein-lysine N-methyltransferase EEF2KMT (Homo sapiens), Q96G04 (parent)
chain: MAPEENAGTELLLQSFERRFLAARTLRSFPWQSLEAKLRDSSDSELLRDILHKTVKHPVCVKHPPSVKYARCFLSELIKKHEAVHTEPLDELYEALAETLMAKESTQGHRSYLLPSGGSVTLSESTAIISYGTTGLVTWDAALYLAEWAIENPAVFTNRTVLELGSGAGLTGLAICKMCRPRAYIFSDCHSRVLEQLRGNVLLNGLSLEADITAKLDSPRVTVAQLDWDVATVHQLSAFQPDVVIAADVLYCPEAIMSLVGVLRRLAACREHQRAPEVYVAFTVRNPETCQLFTTELGRAGIRWEVEPRHEQKLFPYEEHLEMAMLNLTL

In one experiment the parent is B1. The following applies: with sc22a_human SEC22A.
As for V113A, the “effect of a mutation on the interaction” value is “with no effect”.

In the next experiment the parent is B2. To be noted: with rxrg_human RXRG.
For the variant V83I, the “effect of a mutation on the interaction” value is “with no effect”.

The next experiment covers variants of B3. The following applies: with pdcd6_human PDCD6, O75340.
pdcd6_human PDCD6, O75340, sequence (O75340 whole entry): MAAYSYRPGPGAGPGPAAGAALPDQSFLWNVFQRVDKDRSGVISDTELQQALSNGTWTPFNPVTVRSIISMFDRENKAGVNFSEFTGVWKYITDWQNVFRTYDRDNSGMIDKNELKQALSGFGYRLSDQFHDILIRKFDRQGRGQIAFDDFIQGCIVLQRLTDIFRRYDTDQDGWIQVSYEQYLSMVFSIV
As for G429S, the “effect of a mutation on the interaction” value is reported as “with no effect”.

Turning to N550S, the “effect of a mutation on the interaction” value was “with no effect”.

For A309T, the “effect of a mutation on the interaction” value is given as “with no effect”.

Regarding S730L, the “effect of a mutation on the interaction” value is “with no effect”.

Consider G778A, for which the “effect of a mutation on the interaction” value is reported as “with no effect”.

In the next experiment the parent is B4. To be noted: with adip_human SSX2IP.
For the variant R267W, the “effect of a mutation on the interaction” value is “disrupting interaction strength”.

In the next experiment the parent is B5. The following applies: with dyl2_human DYNLL2, Q96FJ2.
dyl2_human DYNLL2, Q96FJ2, sequence (Q96FJ2 whole entry): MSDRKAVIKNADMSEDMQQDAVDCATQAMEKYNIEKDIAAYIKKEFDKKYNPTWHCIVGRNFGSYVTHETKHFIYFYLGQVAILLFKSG
For the variant R32C, the “effect of a mutation on the interaction” value is “disrupting interaction strength”.

In the next experiment the parent is B6. To be noted: with thap1_human THAP1, Q9NVV9.
thap1_human THAP1, Q9NVV9, sequence (Q9NVV9 whole entry): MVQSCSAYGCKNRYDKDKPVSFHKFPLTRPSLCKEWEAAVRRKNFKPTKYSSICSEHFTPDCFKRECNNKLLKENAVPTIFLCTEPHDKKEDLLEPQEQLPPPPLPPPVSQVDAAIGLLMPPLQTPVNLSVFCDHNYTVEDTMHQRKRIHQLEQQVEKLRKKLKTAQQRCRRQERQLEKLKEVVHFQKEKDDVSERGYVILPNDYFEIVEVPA
I279L: the “effect of a mutation on the interaction” value is on record as “with no effect”.

A further experiment covers variants of B7. To be noted: with otub2_human OTUB2, Q96DC9.
On to P122R, for which the “effect of a mutation on the interaction” value is reported as “disrupting interaction strength”.

Variants of B8 are the subject of another experiment. To be noted: with prdc1_human PRTFDC1, Q9NRG1.
prdc1_human PRTFDC1, Q9NRG1, sequence (Q9NRG1 whole entry): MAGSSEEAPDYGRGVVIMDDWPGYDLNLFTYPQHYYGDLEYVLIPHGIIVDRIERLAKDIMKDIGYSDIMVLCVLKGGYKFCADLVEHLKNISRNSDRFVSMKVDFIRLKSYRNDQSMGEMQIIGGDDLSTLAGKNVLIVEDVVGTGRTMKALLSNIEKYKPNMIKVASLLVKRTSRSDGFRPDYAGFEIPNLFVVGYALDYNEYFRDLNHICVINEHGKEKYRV
With S123C, the “effect of a mutation on the interaction” value is “with no effect”.
